Among the data in US20090275637 are binding values, retold here.

In the data set the target is T1, PTP1B catalytic domain (321 residues), GST fusion (Homo sapiens) (UniProt P18031).
T1 sequence: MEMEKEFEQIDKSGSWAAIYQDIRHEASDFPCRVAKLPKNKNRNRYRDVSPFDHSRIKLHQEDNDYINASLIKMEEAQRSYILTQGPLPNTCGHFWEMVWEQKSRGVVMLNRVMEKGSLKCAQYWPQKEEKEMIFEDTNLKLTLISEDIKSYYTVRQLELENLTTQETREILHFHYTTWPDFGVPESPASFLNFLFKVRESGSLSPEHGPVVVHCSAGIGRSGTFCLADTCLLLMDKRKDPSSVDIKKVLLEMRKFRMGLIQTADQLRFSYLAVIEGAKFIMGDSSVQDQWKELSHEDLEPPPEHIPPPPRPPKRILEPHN
The experiment in a line: filter. To be noted: round 0 pool, 200-400 nM PTP1B, 125 mM NaCl, 5 mM MgCl2.

“GGGAAUGGAUCCACAUCUACGAAUUCNNNNNNNNNNNNNNNNNNNNNNNNNNNNNNUUCACUGCAGACUUGACGAAGCUU [N30 initial pool]” gave a binding of less than 1 % retained.
